Measured values taken from patent US20210221899A1 (published 2021).
Changes are numbered by the printed parent chain.

How the values were obtained:
Assay in all cases: SPR (Biacore T200), 100 nM mAb on NGF chip, similarity to parent mAb
canine NGF = target: T1, canine NGF (canine, UniProt Q29074 110-229 (pig entry), limits assumed)
T1 construct: The protein was secreted from CHO cells and purified; also called cNGF; canine β-NGF
T1 chain: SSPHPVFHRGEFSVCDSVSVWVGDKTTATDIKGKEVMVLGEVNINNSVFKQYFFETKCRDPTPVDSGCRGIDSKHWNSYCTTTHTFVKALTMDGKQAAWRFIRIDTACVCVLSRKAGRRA
Procedure, shortened: (§1)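 For each alanine substitution in heavy- or light-chain CDRs, binding to an NGF chip was measured by SPR (Biacore T200) with 100 nM antibody. The "% similarity score" is the fraction of the mutant's sensorgram points within the parent mAb's mean ±3 SD response-unit window, taken from four replicates.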

rat NGF = target: T2, rat NGF (rat, UniProt P25427 122-241)
T2 construct: also called rN
T2 sequence (P25427 122-241 limits assumed): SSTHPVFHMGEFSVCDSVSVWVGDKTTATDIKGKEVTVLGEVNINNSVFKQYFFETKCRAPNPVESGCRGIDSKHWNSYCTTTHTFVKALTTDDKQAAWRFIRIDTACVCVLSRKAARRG
Procedure, shortened: as §1

human NGF = target: T3, human NGF (human, UniProt P01138 122-241)
T3 construct: also called human Nerve Growth Factor; hN
T3 chain: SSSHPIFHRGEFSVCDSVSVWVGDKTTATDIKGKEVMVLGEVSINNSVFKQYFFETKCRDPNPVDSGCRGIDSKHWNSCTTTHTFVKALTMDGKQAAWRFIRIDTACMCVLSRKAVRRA
Procedure, shortened: as §1

B1: can48L2VH_S52A (antibody, V domains shown)
VH: EVQLVESGGDLVKPGGSLRLSCVASGFTFSTYGINWVRQAPGKGLQWVAYIASGGSSTYYADPVKGRFTISRDDAKNMLYLQMNSLRAEDTAIYYCAGSRYTYAYGGGYEFHFWGQGTLVTVSS
VL: QAVLNQPASVSGALGQKVTISCSGSTMDIDIFGVSWYQQLPGKAPKLLVDSDGDRPSGIPDRFSGSRSGNSGTLTITGLQAEDEADYHCQSGDSTLGALAIFGGGTHVTVL
notes: CDR scanning mutant of ZTS-842 (48L2)
Percent Similarity Score (KD on cN) (canine NGF): 99.4% | Percent Similarity Score (KD on rN) (rat NGF): 99.8% | Percent Similarity Score (KD on hN) (human NGF): 100%

B2: can48L2VL_D28A (antibody, V domains shown)
VH: B1 VH with A52S
VL: B1 VL with D28A
notes: as for B1
Percent Similarity Score (KD on cN) (canine NGF): 97% | Percent Similarity Score (KD on rN) (rat NGF): 97.7% | Percent Similarity Score (KD on hN) (human NGF): 99.6%

B3: can48L2VH_S56A (antibody, V domains shown)
VH: B1 VH with A52S, S56A
VL: B1 VL
notes: as for B1
Percent Similarity Score (KD on cN) (canine NGF): 99.3% | Percent Similarity Score (KD on rN) (rat NGF): 99.8% | Percent Similarity Score (KD on hN) (human NGF): 99.9%

B4: can48L2VL_G33A (antibody, V domains shown)
VH: B1 VH with A52S
VL: B1 VL with G33A
notes: as for B1
Percent Similarity Score (KD on cN) (canine NGF): 17.5% | Percent Similarity Score (KD on rN) (rat NGF): 21.2% | Percent Similarity Score (KD on hN) (human NGF): 56.6%

B5: can48L2VL_D30A (antibody, V domains shown)
VH: B1 VH with A52S
VL: B1 VL with D30A
notes: as for B1
Percent Similarity Score (KD on cN) (canine NGF): 98.3% | Percent Similarity Score (KD on rN) (rat NGF): 98.7% | Percent Similarity Score (KD on hN) (human NGF): 99.7%

B6: can48L2VL_S94A (antibody, V domains shown)
VH: B1 VH with A52S
VL: B1 VL with S94A
notes: as for B1
Percent Similarity Score (KD on cN) (canine NGF): 97.8% | Percent Similarity Score (KD on rN) (rat NGF): 99.3% | Percent Similarity Score (KD on hN) (human NGF): 100%

B7: can48L2VL_G97A (antibody, V domains shown)
VH: B1 VH with A52S
VL: B1 VL with G97A
notes: as for B1
Percent Similarity Score (KD on cN) (canine NGF): 92.4% | Percent Similarity Score (KD on rN) (rat NGF): 99.6% | Percent Similarity Score (KD on hN) (human NGF): 100%

B8: can48L2VL_D52A (antibody, V domains shown)
VH: B1 VH with A52S
VL: B1 VL with D52A
notes: as for B1
Percent Similarity Score (KD on cN) (canine NGF): 99.7% | Percent Similarity Score (KD on rN) (rat NGF): 99.9% | Percent Similarity Score (KD on hN) (human NGF): 100%

B9: can48L2VL_I101A (antibody, V domains shown)
VH: B1 VH with A52S
VL: B1 VL with I101A
notes: as for B1
Percent Similarity Score (KD on cN) (canine NGF): 97.3% | Percent Similarity Score (KD on rN) (rat NGF): 99.6% | Percent Similarity Score (KD on hN) (human NGF): 100%

B10: can48L2VL_M27A (antibody, V domains shown)
VH: B1 VH with A52S
VL: B1 VL with M27A
notes: as for B1
Percent Similarity Score (KD on cN) (canine NGF): 28% | Percent Similarity Score (KD on rN) (rat NGF): 37.9% | Percent Similarity Score (KD on hN) (human NGF): 72.1%

B11: can48L2VL_F32A (antibody, V domains shown)
VH: B1 VH with A52S
VL: B1 VL with F32A
notes: as for B1
Percent Similarity Score (KD on cN) (canine NGF): 19.6% | Percent Similarity Score (KD on rN) (rat NGF): 66% | Percent Similarity Score (KD on hN) (human NGF): 44.3%

B12: can48L2VL_Q90A (antibody, V domains shown)
VH: B1 VH with A52S
VL: B1 VL with Q90A
notes: as for B1
Percent Similarity Score (KD on cN) (canine NGF): 94.4% | Percent Similarity Score (KD on rN) (rat NGF): 98.7% | Percent Similarity Score (KD on hN) (human NGF): 99.9%

B13: can48L2VH_T58A (antibody, V domains shown)
VH: B1 VH with A52S, T58A
VL: B1 VL
notes: as for B1
Percent Similarity Score (KD on cN) (canine NGF): 99.1% | Percent Similarity Score (KD on rN) (rat NGF): 99.7% | Percent Similarity Score (KD on hN) (human NGF): 99.9%

B14: can48L2VL_D93A (antibody, V domains shown)
VH: B1 VH with A52S
VL: B1 VL with D93A
notes: as for B1
Percent Similarity Score (KD on cN) (canine NGF): 98.7% | Percent Similarity Score (KD on rN) (rat NGF): 99.5% | Percent Similarity Score (KD on hN) (human NGF): 99.9%

B15: can48L2VL_L96A (antibody, V domains shown)
VH: B1 VH with A52S
VL: B1 VL with L96A
notes: as for B1
Percent Similarity Score (KD on cN) (canine NGF): 90% | Percent Similarity Score (KD on rN) (rat NGF): 93.2% | Percent Similarity Score (KD on hN) (human NGF): 99.9%

B16: can48L2VL_G92A (antibody, V domains shown)
VH: B1 VH with A52S
VL: B1 VL with G92A
notes: as for B1
Percent Similarity Score (KD on cN) (canine NGF): 93.6% | Percent Similarity Score (KD on rN) (rat NGF): 97% | Percent Similarity Score (KD on hN) (human NGF): 99.3%

B17: can48L2VL_I29A (antibody, V domains shown)
VH: B1 VH with A52S
VL: B1 VL with I29A
notes: as for B1
Percent Similarity Score (KD on cN) (canine NGF): 47% | Percent Similarity Score (KD on rN) (rat NGF): 57.2% | Percent Similarity Score (KD on hN) (human NGF): 97.8%

B18: can48L2VH_S53A (antibody, V domains shown)
VH: B1 VH with A52S, S53A
VL: B1 VL
notes: as for B1
Percent Similarity Score (KD on cN) (canine NGF): 97.8% | Percent Similarity Score (KD on rN) (rat NGF): 99.4% | Percent Similarity Score (KD on hN) (human NGF): 100%

B19: can48L2VH_S57A (antibody, V domains shown)
VH: B1 VH with A52S, S57A
VL: B1 VL
notes: as for B1
Percent Similarity Score (KD on cN) (canine NGF): 98.4% | Percent Similarity Score (KD on rN) (rat NGF): 99.7% | Percent Similarity Score (KD on hN) (human NGF): 100%

B20: can48L2VL_T95A (antibody, V domains shown)
VH: B1 VH with A52S
VL: B1 VL with T95A
notes: as for B1
Percent Similarity Score (KD on cN) (canine NGF): 94.9% | Percent Similarity Score (KD on rN) (rat NGF): 99.4% | Percent Similarity Score (KD on hN) (human NGF): 99.6%

B21: can48L2VL_S91A (antibody, V domains shown)
VH: B1 VH with A52S
VL: B1 VL with S91A
notes: as for B1
Percent Similarity Score (KD on cN) (canine NGF): 59.6% | Percent Similarity Score (KD on rN) (rat NGF): 76.7% | Percent Similarity Score (KD on hN) (human NGF): 97.5%

B22: can48L2VL_G53A (antibody, V domains shown)
VH: B1 VH with A52S
VL: B1 VL with G53A
notes: as for B1
Percent Similarity Score (KD on cN) (canine NGF): 100% | Percent Similarity Score (KD on rN) (rat NGF): 100% | Percent Similarity Score (KD on hN) (human NGF): 100%

B23: can48L2VL_S51A (antibody, V domains shown)
VH: B1 VH with A52S
VL: B1 VL with S51A
notes: as for B1
Percent Similarity Score (KD on cN) (canine NGF): 100% | Percent Similarity Score (KD on rN) (rat NGF): 100% | Percent Similarity Score (KD on hN) (human NGF): 100%

B24: can48L2VL_L99A (antibody, V domains shown)
VH: B1 VH with A52S
VL: B1 VL with L99A
notes: as for B1
Percent Similarity Score (KD on cN) (canine NGF): 96.8% | Percent Similarity Score (KD on rN) (rat NGF): 98.4% | Percent Similarity Score (KD on hN) (human NGF): 99.8%

B25: can48L2VL_I31A (antibody, V domains shown)
VH: B1 VH with A52S
VL: B1 VL with I31A
notes: as for B1
Percent Similarity Score (KD on cN) (canine NGF): 32.9% | Percent Similarity Score (KD on rN) (rat NGF): 39.9% | Percent Similarity Score (KD on hN) (human NGF): 86.2%

B26: can48L2VH_T31A (antibody, V domains shown)
VH: B1 VH with T31A, A52S
VL: B1 VL
notes: as for B1
Percent Similarity Score (KD on cN) (canine NGF): 99.6% | Percent Similarity Score (KD on rN) (rat NGF): 99.9% | Percent Similarity Score (KD on hN) (human NGF): 99.9%

B27: can48L2VL_A100L (antibody, V domains shown)
VH: B1 VH with A52S
VL: B1 VL with A100L
notes: as for B1
Percent Similarity Score (KD on cN) (canine NGF): 97.8% | Percent Similarity Score (KD on rN) (rat NGF): 98.3% | Percent Similarity Score (KD on hN) (human NGF): 99.9%

B28: can48L2VL_A98L (antibody, V domains shown)
VH: B1 VH with A52S
VL: B1 VL with A98L
notes: as for B1
Percent Similarity Score (KD on cN) (canine NGF): 97.3% | Percent Similarity Score (KD on rN) (rat NGF): 98.4% | Percent Similarity Score (KD on hN) (human NGF): 99.8%

B29: can9L12VH_I50A (antibody, V domains shown)
VH: EVQLVESGGDLVKPGGSLRLSCVASGFTFSSHGMHWVRQSPGKGLQWVAVANSGGSSTYYTDAVKGRFTISRDNAKNTVYLQMNSLRAEDTAMYYCAKESVGGWEQLVGPHFDYWGQGTLVIVSS
VL: QSVLTQPTSVSGSLGQRVTISCSGSTNNIGILGASWYQLFPGKAPKLLVYGNGNRPSGVPDRFSGADSGDSVTLTITGLQAEDEADYYCQSFDTTLGAHVFGGGTHLTVL
Percent Similarity Score (KD on cN) (canine NGF): 100% | Percent Similarity Score (KD on rN) (rat NGF): 92% | Percent Similarity Score (KD on hN) (human NGF): 96.6%
